# According to IntAct's records for PubMed 35512704:
# B1: Mothers against decapentaplegic homolog 4 (Homo sapiens), Q13485 (parent)
# chain: MDNMSITNTPTSNDACLSIVHSLMCHRQGGESETFAKRAIESLVKKLKEKKDELDSLITAITTNGAHPSKCVTIQRTLDGRLQVAGRKGFPHVIYARLWRWPDLHKNELKHVKYCQYAFDLKCDSVCVNPYHYERVVSPGIDLSGLTLQSNAPSSMMVKDEYVHDFEGQPSLSTEGHSIQTIQHPPSNRASTETYSTPALLAPSESNATSTANFPNIPVASTSQPASILGGSHSEGLLQIASGPQPGQQQNGFTGQPATYHHNSTTTWTGSRTAPYTPNLPHHQNGHLQHHPPMPPHPGHYWPVHNELAFQPPISNHPAPEYWCSIAYFEMDVQVGETFKVPSSCPIVTVDGYVDPSGGDRFCLGQLSNVHRTEAIERARLHIGKGVQLECKGEGDVWVRCLSDHAVFVQSYYLDREAGRAPGDAVHKIYPSAYIKVFDLRQCHRQMQQQAATAQAAAAAQAAAVAGNIPGPGSVGGIAPAISLSAAAGIGVDDLRRLCILRMSFVKGWGPDYPRQSIKETPCWIEIHLHRALQLLDEVLHTMPIADPQPLD
# Variants of: B1
# Conditions: with grm1_human GRM1, Q13255
row,Variant,effect of a mutation on the interaction
1,R361C,with no effect

# Variants of: B1
# Conditions: with grm3_human GRM3, Q14832
row,Variant,effect of a mutation on the interaction
1,R361C,with no effect

# Variants of: B1
# Conditions: with gsk3a_human GSK3A
row,Variant,effect of a mutation on the interaction
1,R361C,with no effect

# Variants of: B1
# Conditions: with hdac1_human HDAC1, Q13547
row,Variant,effect of a mutation on the interaction
1,R361C,with no effect

# Variants of: B1
# Conditions: with hdac3_human HDAC3, O15379
row,Variant,effect of a mutation on the interaction
1,R361C,with no effect

# Variants of: B1
# Conditions: with hgf_human HGF
row,Variant,effect of a mutation on the interaction
1,R361C,with no effect

# Variants of: B1
# Conditions: with h31_human H3C1, P68431
row,Variant,effect of a mutation on the interaction
1,R361C,with no effect

# Variants of: B1
# Conditions: with hlab_human HLA-B
row,Variant,effect of a mutation on the interaction
1,R361C,with no effect

# Variants of: B1
# Conditions: with hnf1a_human HNF1A
row,Variant,effect of a mutation on the interaction
1,R361C,with no effect

# Variants of: B1
# Conditions: with rash_human HRAS
row,Variant,effect of a mutation on the interaction
1,R361C,with no effect

# Variants of: B1
# Conditions: with hs90a_human HSP90AA1, P07900
row,Variant,effect of a mutation on the interaction
1,R361C,with no effect

# Variants of: B1
# Conditions: with il7ra_human IL7R
row,Variant,effect of a mutation on the interaction
1,R361C,with no effect

# Variants of: B1
# Conditions: with irf6_human IRF6, O14896
row,Variant,effect of a mutation on the interaction
1,R361C,with no effect

# Variants of: B1
# Conditions: with irs1_human IRS1, P35568
# irs1_human IRS1, P35568, sequence (P35568 whole entry): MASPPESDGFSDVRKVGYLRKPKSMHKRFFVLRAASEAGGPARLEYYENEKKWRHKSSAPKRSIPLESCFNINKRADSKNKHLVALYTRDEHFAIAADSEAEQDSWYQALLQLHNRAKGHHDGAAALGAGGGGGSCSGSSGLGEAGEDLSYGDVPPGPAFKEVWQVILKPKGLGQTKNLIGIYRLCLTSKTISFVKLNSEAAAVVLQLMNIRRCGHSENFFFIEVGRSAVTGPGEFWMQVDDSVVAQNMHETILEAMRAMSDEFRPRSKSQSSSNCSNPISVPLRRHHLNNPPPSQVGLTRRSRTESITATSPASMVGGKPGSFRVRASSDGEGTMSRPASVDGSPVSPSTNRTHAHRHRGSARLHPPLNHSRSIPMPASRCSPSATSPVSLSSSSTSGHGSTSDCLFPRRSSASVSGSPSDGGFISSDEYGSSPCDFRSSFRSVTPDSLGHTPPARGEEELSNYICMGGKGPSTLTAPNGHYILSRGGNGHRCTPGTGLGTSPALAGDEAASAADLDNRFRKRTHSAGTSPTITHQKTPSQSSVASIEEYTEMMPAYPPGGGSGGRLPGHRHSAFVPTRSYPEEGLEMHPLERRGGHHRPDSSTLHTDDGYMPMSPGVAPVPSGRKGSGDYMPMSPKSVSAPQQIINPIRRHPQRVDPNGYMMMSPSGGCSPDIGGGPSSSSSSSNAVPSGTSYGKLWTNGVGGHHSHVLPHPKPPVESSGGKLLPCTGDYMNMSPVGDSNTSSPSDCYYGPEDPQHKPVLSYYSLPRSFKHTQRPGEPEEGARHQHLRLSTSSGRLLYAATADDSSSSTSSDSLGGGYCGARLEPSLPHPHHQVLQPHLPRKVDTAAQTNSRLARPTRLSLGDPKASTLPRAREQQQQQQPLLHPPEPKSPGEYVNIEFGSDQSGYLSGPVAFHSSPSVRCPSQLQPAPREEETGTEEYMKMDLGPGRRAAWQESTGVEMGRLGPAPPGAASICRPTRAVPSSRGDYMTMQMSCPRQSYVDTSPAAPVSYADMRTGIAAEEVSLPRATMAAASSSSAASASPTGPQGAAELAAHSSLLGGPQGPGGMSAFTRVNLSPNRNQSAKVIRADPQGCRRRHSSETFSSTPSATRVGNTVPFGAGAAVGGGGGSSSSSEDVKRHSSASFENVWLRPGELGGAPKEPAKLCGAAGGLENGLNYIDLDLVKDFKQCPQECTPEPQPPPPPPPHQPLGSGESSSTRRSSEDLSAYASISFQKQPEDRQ
row,Variant,effect of a mutation on the interaction
1,R361C,with no effect

# Variants of: B1
# Conditions: with jak1_human JAK1, P23458
row,Variant,effect of a mutation on the interaction
1,R361C,with no effect

# Variants of: B1
# Conditions: with jak3_human JAK3, P52333
row,Variant,effect of a mutation on the interaction
1,R361C,with no effect

# Variants of: B1
# Conditions: with kdm5c_human KDM5C
row,Variant,effect of a mutation on the interaction
1,R361C,with no effect

# Variants of: B1
# Conditions: with vgfr2_human KDR
row,Variant,effect of a mutation on the interaction
1,R361C,with no effect

# Variants of: B1
# Conditions: with keap1_human KEAP1, Q14145
row,Variant,effect of a mutation on the interaction
1,R361C,with no effect

# Variants of: B1
# Conditions: with klf4_human KLF4, O43474
row,Variant,effect of a mutation on the interaction
1,R361C,with no effect

# Variants of: B1
# Conditions: with maga6_human MAGEA6, P43360
row,Variant,effect of a mutation on the interaction
1,R361C,with no effect

# Variants of: B1
# Conditions: with mp2k7_human MAP2K7, O14733
row,Variant,effect of a mutation on the interaction
1,R361C,with no effect

# Variants of: B1
# Conditions: with m3k1_human MAP3K1, Q13233
# m3k1_human MAP3K1, Q13233, sequence (Q13233 whole entry): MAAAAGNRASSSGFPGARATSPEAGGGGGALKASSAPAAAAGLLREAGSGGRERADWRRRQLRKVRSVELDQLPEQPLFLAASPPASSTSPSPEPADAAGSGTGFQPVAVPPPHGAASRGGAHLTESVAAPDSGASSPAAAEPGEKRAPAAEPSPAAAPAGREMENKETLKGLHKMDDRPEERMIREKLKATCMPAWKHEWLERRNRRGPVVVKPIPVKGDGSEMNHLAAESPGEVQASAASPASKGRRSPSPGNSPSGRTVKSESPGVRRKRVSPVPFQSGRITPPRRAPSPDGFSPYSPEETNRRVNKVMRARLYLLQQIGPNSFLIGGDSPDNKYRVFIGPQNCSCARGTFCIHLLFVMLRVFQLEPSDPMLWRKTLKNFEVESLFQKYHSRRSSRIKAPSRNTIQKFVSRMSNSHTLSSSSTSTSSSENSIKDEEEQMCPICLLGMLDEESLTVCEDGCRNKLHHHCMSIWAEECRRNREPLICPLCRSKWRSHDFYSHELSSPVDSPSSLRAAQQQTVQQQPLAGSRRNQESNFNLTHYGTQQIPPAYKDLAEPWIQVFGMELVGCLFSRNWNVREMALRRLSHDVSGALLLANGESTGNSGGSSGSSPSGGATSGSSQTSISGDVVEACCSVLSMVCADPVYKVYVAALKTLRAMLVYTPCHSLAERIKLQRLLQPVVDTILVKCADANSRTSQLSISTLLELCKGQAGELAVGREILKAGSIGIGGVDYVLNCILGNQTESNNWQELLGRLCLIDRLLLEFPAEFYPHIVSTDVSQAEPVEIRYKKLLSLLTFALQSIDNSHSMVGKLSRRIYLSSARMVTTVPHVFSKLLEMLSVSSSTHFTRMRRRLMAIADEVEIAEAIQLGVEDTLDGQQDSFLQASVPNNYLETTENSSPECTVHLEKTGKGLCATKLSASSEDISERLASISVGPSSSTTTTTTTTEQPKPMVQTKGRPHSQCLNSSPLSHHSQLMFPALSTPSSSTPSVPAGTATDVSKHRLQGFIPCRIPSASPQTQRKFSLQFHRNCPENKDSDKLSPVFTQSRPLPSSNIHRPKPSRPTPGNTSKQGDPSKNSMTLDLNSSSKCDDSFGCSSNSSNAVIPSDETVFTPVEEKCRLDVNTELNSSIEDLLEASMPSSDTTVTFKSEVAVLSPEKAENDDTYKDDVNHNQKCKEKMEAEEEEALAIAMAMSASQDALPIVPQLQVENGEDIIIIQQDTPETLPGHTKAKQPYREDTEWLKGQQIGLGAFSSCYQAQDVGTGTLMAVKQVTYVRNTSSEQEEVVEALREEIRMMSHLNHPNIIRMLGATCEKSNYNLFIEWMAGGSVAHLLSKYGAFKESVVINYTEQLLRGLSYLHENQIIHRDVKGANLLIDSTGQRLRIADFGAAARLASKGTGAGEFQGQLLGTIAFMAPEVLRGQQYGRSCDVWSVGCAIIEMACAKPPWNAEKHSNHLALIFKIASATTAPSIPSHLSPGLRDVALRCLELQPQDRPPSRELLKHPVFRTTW
row,Variant,effect of a mutation on the interaction
1,R361C,with no effect

# Variants of: B1
# Conditions: with mk10_human MAPK10, P53779
# mk10_human MAPK10, P53779, sequence (P53779 whole entry): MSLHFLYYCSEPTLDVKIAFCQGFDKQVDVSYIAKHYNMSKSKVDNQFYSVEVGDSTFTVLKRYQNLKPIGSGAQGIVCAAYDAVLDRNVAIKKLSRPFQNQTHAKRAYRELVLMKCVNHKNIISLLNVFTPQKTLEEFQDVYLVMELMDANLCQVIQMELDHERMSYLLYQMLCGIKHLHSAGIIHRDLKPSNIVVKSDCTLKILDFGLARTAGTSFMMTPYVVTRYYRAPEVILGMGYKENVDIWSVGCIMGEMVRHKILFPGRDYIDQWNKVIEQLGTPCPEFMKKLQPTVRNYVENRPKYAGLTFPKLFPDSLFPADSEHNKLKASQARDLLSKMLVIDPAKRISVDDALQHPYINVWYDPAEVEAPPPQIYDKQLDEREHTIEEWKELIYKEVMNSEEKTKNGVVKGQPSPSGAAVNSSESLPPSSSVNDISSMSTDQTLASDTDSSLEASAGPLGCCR
row,Variant,effect of a mutation on the interaction
1,R361C,with no effect

# Variants of: B1
# Conditions: with mk14_human MAPK14, Q16539
row,Variant,effect of a mutation on the interaction
1,R361C,with no effect

# Variants of: B1
# Conditions: with mk03_human MAPK3, P27361
# mk03_human MAPK3, P27361, sequence (P27361 whole entry): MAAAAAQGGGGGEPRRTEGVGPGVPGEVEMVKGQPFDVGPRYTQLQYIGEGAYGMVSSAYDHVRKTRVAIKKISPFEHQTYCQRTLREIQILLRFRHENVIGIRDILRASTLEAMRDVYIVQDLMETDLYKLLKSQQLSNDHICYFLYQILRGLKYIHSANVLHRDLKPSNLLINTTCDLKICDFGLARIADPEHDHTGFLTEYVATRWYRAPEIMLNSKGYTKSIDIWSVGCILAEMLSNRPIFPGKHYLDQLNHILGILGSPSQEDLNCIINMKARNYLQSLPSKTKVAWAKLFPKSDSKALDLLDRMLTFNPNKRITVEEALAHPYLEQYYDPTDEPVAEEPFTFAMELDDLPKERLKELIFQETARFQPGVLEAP
row,Variant,effect of a mutation on the interaction
1,R361C,with no effect

# Variants of: B1
# Conditions: with mk04_human MAPK4, P31152
row,Variant,effect of a mutation on the interaction
1,R361C,with no effect

# Variants of: B1
# Conditions: with mk06_human MAPK6, Q16659
row,Variant,effect of a mutation on the interaction
1,R361C,with no effect

# Variants of: B1
# Conditions: with mcl1_human MCL1, Q07820
row,Variant,effect of a mutation on the interaction
1,R361C,with no effect

# Variants of: B1
# Conditions: with mitf_human MITF
row,Variant,effect of a mutation on the interaction
1,R361C,with no effect

# Variants of: B1
# Conditions: with myc_human MYC
row,Variant,effect of a mutation on the interaction
1,R361C,with no effect

# Variants of: B1
# Conditions: with nf1_human NF1, P21359
row,Variant,effect of a mutation on the interaction
1,R361C,with no effect

# Variants of: B1
# Conditions: with merl_human NF2, P35240
row,Variant,effect of a mutation on the interaction
1,R361C,with no effect

# Variants of: B1
# Conditions: with nfic_human NFIC
row,Variant,effect of a mutation on the interaction
1,R361C,with no effect

# Variants of: B1
# Conditions: with notc2_human NOTCH2, Q04721
row,Variant,effect of a mutation on the interaction
1,R361C,with no effect

# Variants of: B1
# Conditions: with pak3_human PAK3, O75914
row,Variant,effect of a mutation on the interaction
1,R361C,with no effect

# Variants of: B1
# Conditions: with pax5_human PAX5, Q02548
row,Variant,effect of a mutation on the interaction
1,R361C,with no effect

# Variants of: B1
# Conditions: with pax9_human PAX9, P55771
# pax9_human PAX9, P55771, sequence (P55771 whole entry): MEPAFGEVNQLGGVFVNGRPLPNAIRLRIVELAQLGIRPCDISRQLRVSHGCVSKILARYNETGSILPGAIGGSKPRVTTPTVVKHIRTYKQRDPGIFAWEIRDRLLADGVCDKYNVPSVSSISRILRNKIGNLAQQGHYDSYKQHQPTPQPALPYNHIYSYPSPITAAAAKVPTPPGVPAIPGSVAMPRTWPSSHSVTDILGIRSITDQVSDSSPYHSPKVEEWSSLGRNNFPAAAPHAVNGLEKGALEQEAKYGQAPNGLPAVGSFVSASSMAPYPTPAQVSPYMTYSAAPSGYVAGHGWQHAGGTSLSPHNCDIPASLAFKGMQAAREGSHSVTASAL
row,Variant,effect of a mutation on the interaction
1,R361C,with no effect

# Variants of: B1
# Conditions: with pb1_human PBRM1, Q86U86
row,Variant,effect of a mutation on the interaction
1,R361C,with no effect

# Variants of: B1
# Conditions: with pcbp1_human PCBP1, Q15365
row,Variant,effect of a mutation on the interaction
1,R361C,with no effect

# Variants of: B1
# Conditions: with pgfra_human PDGFRA
row,Variant,effect of a mutation on the interaction
1,R361C,with no effect

# Variants of: B1
# Conditions: with pgfrb_human PDGFRB
row,Variant,effect of a mutation on the interaction
1,R361C,with no effect

# Variants of: B1
# Conditions: with pdk1_human PDK1, Q15118
row,Variant,effect of a mutation on the interaction
1,R361C,with no effect

# Variants of: B1
# Conditions: with PIK3C2B
row,Variant,effect of a mutation on the interaction
1,R361C,with no effect

# Variants of: B1
# Conditions: with pk3c3_human PIK3C3, Q8NEB9
row,Variant,effect of a mutation on the interaction
1,R361C,with no effect

# Variants of: B1
# Conditions: with pk3ca_human PIK3CA
row,Variant,effect of a mutation on the interaction
1,R361C,with no effect

# Variants of: B1
# Conditions: with pk3cg_human PIK3CG
row,Variant,effect of a mutation on the interaction
1,R361C,with no effect

# Variants of: B1
# Conditions: with p85a_human PIK3R1, P27986
row,Variant,effect of a mutation on the interaction
1,R361C,with no effect

# Variants of: B1
# Conditions: with p85b_human PIK3R2, O00459
# p85b_human PIK3R2, O00459, sequence (O00459 whole entry): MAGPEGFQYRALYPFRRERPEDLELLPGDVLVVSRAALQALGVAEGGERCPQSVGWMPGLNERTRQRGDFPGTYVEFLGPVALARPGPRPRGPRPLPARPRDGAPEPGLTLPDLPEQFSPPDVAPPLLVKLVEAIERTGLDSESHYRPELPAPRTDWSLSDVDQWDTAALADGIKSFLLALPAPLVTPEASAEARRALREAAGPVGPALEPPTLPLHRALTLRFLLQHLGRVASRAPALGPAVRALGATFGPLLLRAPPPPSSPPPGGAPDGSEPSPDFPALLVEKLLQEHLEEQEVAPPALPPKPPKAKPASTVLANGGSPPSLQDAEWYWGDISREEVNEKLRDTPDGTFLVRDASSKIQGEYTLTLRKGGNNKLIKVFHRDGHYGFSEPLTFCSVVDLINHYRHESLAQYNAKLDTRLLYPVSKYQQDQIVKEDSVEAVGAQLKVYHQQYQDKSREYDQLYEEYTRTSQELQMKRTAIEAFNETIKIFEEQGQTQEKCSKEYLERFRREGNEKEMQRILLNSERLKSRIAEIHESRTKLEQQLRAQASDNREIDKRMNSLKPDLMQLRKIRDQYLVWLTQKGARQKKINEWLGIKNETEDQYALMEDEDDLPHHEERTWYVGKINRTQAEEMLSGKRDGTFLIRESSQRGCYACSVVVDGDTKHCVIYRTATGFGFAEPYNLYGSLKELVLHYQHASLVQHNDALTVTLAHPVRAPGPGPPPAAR
row,Variant,effect of a mutation on the interaction
1,R361C,with no effect

# Variants of: B1
# Conditions: with dpod1_human POLD1, P28340
row,Variant,effect of a mutation on the interaction
1,R361C,with no effect

# Variants of: B1
# Conditions: with dpoe1_human POLE
row,Variant,effect of a mutation on the interaction
1,R361C,with no effect

# Variants of: B1
# Conditions: with lipa1_human PPFIA1, Q13136
row,Variant,effect of a mutation on the interaction
1,R361C,with no effect

# Variants of: B1
# Conditions: with 2aaa_human PPP2R1A
row,Variant,effect of a mutation on the interaction
1,R361C,with no effect

# Variants of: B1
# Conditions: with prdm1_human PRDM1, O75626
row,Variant,effect of a mutation on the interaction
1,R361C,with no effect

# Variants of: B1
# Conditions: with aapk2_human PRKAA2, P54646
row,Variant,effect of a mutation on the interaction
1,R361C,with no effect

# Variants of: B1
# Conditions: with aakb2_human PRKAB2, O43741
row,Variant,effect of a mutation on the interaction
1,R361C,with no effect

# Variants of: B1
# Conditions: with prss8_human PRSS8, Q16651
# prss8_human PRSS8, Q16651, sequence (Q16651 whole entry, looked up): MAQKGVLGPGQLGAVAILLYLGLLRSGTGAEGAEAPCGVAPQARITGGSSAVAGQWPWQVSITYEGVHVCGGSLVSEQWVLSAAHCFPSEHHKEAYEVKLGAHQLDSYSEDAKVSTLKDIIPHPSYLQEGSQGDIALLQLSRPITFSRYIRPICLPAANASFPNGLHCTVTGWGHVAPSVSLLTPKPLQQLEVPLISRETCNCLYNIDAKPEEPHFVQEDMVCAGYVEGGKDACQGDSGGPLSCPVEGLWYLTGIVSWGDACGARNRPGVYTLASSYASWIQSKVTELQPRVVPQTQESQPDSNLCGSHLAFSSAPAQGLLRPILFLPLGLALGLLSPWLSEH
row,Variant,effect of a mutation on the interaction
1,R361C,with no effect

# Variants of: B1
# Conditions: with ptk6_human PTK6, Q13882
row,Variant,effect of a mutation on the interaction
1,R361C,with no effect

# Variants of: B1
# Conditions: with tf65_human RELA
row,Variant,effect of a mutation on the interaction
1,R361C,with no effect

# Variants of: B1
# Conditions: with rnf43_human RNF43, Q68DV7
row,Variant,effect of a mutation on the interaction
1,R361C,with no effect
